{"source": "patent US20230395187A1", "target": "SARS-CoV-2 spike protein, delta (SARS-CoV-2) (UniProt P0DTC2)", "assay": "virus-free Luminex binding assay, spike on beads"}
{"substance": "Imdevimab (RGN87) (antibody)", "values": [{"measurement": "EC50", "value": 0.17, "unit": "µg/mL"}]}
